Holding throughout (assay): SPR, antibody on GLC chip, SIRP as analyte
The target of one assay is T1, SIRP-α human v2 (human, UniProt P78324 31-149, limits assumed).
T1 construct: Soluble analyte in SPR
How it is done:
(§1) The running buffer was PBS pH 7.4 with 0.01% TWEEN-20 (PBST+). All analytes were used at their nominal concentrations as determined by A280 absorbance and using their molar calculated extinction coefficient. Analytes were injected in a “one-shot” kinetic mode as described (see, e.g., Bravman et al., Anal. Biochem. 2006, 358, 281-288).
(§2) For the method using a GLC chip, the analytes were injected and flowed over anti-SIRPα antibodies immobilized (˜1000 RUs) on GLC chips using Proteon Amine Coupling Kit. For the immobilization step, the GLC chip was activated with EDAC/Sulpho-NHS 1:1 (Biorad) diluted 1/100 for 300 s at 25 μL/min. Anti-SIRPα antibodies were diluted to 80 nM concentration in 10 mM sodium acetate buffer pH 4.5 and immobilized to the chip at 30 μL/min for 50 s. Chip was inactivated with ethanolamine for 300 s at 25 μL/min. The analytes (e.g., SIRP-α from different species, SIRP-β, SIRP-γ) were injected in a “one-shot” kinetic mode at nominal concentrations of 100, 33, 11, 3.7, 1.2, and 0 nM. Association times were monitored for 90 s at 100 uL/min, and dissociation times were monitored for 1200 s. The surfaces were regenerated with a 2:1 v/v blend of Pierce IgG elution buffer/4M NaCl.
(§3) Biosensor data were double-referenced by subtracting the interspot data (containing no immobilized protein) from the reaction spot data (immobilized protein) and then subtracting the response of a buffer “blank” analyte injection from that of an analyte injection. Double-referenced data were fit globally to a simple Langmuir model and the KD value was calculated from the ratio of the apparent kinetic rate constants (KD=kd/kₐ).

For the next assay, the target named is T2, SIRP-α cynomolgus (cynomolgus, UniProt A0A2K5VYQ9 31-148).
T2 construct: Soluble analyte in SPR; also called cynomologous monkey SIRP-α
T2 sequence: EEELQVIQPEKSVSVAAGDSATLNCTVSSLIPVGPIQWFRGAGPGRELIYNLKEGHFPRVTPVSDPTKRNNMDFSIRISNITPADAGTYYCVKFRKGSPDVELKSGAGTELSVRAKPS
How it is done:
as §1, §2, §3

The target of another assay is T3, SIRP-α mouse BL6 (mouse (BL6), UniProt P97797 32-150, limits assumed).
T3 construct: Soluble analyte in SPR
T3 sequence (looked up): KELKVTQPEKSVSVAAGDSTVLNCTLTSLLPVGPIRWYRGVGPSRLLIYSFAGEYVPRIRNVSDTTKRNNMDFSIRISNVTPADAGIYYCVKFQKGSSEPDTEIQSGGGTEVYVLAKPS
The procedure: as §1, §2, §3

The target in a further assay is T4, Human SIRPγ (human, UniProt Q9P1W8 29-147, limits assumed).
T4 construct: Soluble analyte in SPR
How it is done: as §1, §2, §3

The target in a further assay is T5, Human SIRPβ (human, UniProt O00241 30-148).
T5 construct: Soluble analyte in SPR
The procedure: as §1, §2, §3

Numbering of substitutions follows the chain as printed. In names and notes the source's numbering stands.

T5 sequence (O00241 30-148): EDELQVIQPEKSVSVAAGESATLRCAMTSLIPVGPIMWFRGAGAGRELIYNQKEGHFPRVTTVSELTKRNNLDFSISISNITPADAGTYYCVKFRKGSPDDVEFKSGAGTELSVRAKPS
T4 sequence (Q9P1W8 29-147 limits assumed): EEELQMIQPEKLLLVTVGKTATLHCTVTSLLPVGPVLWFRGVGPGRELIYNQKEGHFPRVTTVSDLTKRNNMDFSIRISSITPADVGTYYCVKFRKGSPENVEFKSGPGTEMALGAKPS
T1 sequence (P78324 other isoform, or with tags, fused parts or gaps limits assumed): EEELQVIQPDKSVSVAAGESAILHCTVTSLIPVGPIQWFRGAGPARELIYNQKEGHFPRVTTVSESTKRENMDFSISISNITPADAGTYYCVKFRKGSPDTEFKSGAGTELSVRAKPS

B1: Anti-SIRP-α antibody 119, light chain Mut, heavy chain wt (antibody, V domains shown)
VH: EVQLLESGGGVVQPGGSLRLSCAASGFSFSNFAMTWVRQAPGEGLEWVSTIGSGDTYYADSVKGRFTISRDNSKNTLYLQMNSLRAEDTAVYYCAKDSTVSWSGDFFDYWGLGTLVTVSS
VL: EIVLTQSPATLSVSPGERATLSCRASQNVKNDLAWYQQKPGQAPRLLIYAARIRETGIPARFSGSGSGTEFTLTISSLQSEDFAVYYCQQYYDWPPFTFGGGTKVEIK
notes: Whole antibody; Light chain mut = F21L, R39K, E60A, T76S
The term Kd denotes a measure of binding affinity in units of concentration. For the molecule B1, the figures for the Kd in the assay with SIRP-α human v2, with SIRP-α cynomolgus and with Human SIRPγ were 0.086 nM, 0.14 nM and 0.23 nM, respectively. For the same molecule, the binding result with SIRP-α mouse BL6 was “no binding (tested: 100 nM (highest analyte concentration))”.

B2: Anti-SIRP-α antibody 135, light chain wt, heavy chain Mut (antibody, V domains shown)
VH: B1 VH with L5V, N31I, F32Y, M34V, T35S, E43K, S53A, G54D, S101G, L112Q
VL: EIVLTQSPATLSVSPGERVTFSCRASQNVRSDIAWYQQKPGQAPRLLIYAASSRDTGIPDRFSGSGSGTDFTLTISSLQSEDFGVYYCQQYYDWPPFTFGGGTKVEIK
notes: Whole antibody; Heavy chain mut = D1E, R13Q, E16G, M34V, E43K, L112Q
As to B2, the dissociation constant Kd was found to be 0.02 nM in the assay with SIRP-α human v2, 0.13 nM with SIRP-α cynomolgus and 0.78 nM with Human SIRPγ. Moreover, the binding result in the assay with SIRP-α mouse BL6 is listed as “no binding (tested: 100 nM (highest analyte concentration))”.

B3: Anti-SIRP-α antibody 119, light chain Mut, heavy chain Mut_V34M (antibody, V domains shown)
VH: B1 VH with E43K, L112Q
VL: B1 VL
notes: Whole antibody
For the molecule B3, the Kd in the assay with SIRP-α human v2 stood at 0.069 nM; with SIRP-α cynomolgus it was 0.12 nM; with Human SIRPβ, 0.34 nM; with Human SIRPγ, 0.26 nM. The binding result in the assay with SIRP-α mouse BL6 was “no binding (tested: 100 nM (highest analyte concentration))”.

B4: Anti-SIRP-α antibody 119, light chain wt, heavy chain Mut (antibody, V domains shown)
VH: B1 VH with M34V, E43K, L112Q
VL: B1 VL with L21F, K39R, A60E, S76T
notes: Whole antibody; Heavy chain mut = D1E, E43K, L112Q, M34V
As for B4, the dissociation constant Kd with SIRP-α human v2 turned out to be 0.069 nM; with SIRP-α cynomolgus, 0.16 nM. Also, the binding result with SIRP-α mouse BL6 is given as “no binding (tested: 100 nM (highest analyte concentration))”.

B5: Anti-SIRP-α antibody 135, light chain Mut, heavy chain wt (antibody, V domains shown)
VH: B1 VH with E1D, L5V, Q13R, G16E, N31I, F32Y, T35S, S53A, G54D, S101G
VL: B2 VL with F21L, D60A
notes: Whole antibody; Light chain mut = F21L, D60A
As to B5, the Kd with SIRP-α human v2 turned out to be 0.027 nM; with SIRP-α cynomolgus it was 0.1 nM; in the assay with Human SIRPγ, 0.52 nM. The binding result with SIRP-α mouse BL6 is “no binding (tested: 100 nM (highest analyte concentration))”.

B6: Anti-SIRP-α antibody 119, light chain Mut, heavy chain Mut (antibody, V domains shown)
VH: B1 VH with M34V, E43K, L112Q
VL: B1 VL
notes: Whole antibody
Consider B6, for which the Kd with SIRP-α human v2 turned out to be 0.088 nM; in the assay with SIRP-α cynomolgus, 0.2 nM; with Human SIRPβ, 0.46 nM; with Human SIRPγ, 0.34 nM. Further, in the assay with SIRP-α mouse BL6, the binding result is recorded as “no binding (tested: 100 nM (highest analyte concentration))”.

B7: Anti-SIRP-α antibody 135, light chain wt, heavy chain wt (antibody, V domains shown)
VH: B1 VH with E1D, L5V, Q13R, G16E, N31I, F32Y, T35S, S53A, G54D, S101G
VL: B2 VL
notes: Whole antibody
Take B7: the figures for the Kd with SIRP-α human v2, in the assay with SIRP-α cynomolgus and with Human SIRPγ were 0.029 nM, 0.097 nM and 0.54 nM, respectively. In the assay with SIRP-α mouse BL6, the binding result is recorded as “no binding (tested: 100 nM (highest analyte concentration))”.

B8: Anti-SIRP-α antibody 136, light chain wt, heavy chain Mut (antibody, V domains shown)
VH: EVQLVESGGGVVQPGRSLRLSCAASGFTFSSYDVNWVRQAPGKGLEWVSLISGSGEIIYYADSVKGRFTISRDNSKNTLYLQMNSLRAEDTAVYYCAKENNRYRFFDDWGQGTLVTVSS
VL: ETVLTQSPGTLTLSPGERATLTCRASQSVYTYLAWYQEKPGQAPRLLIYGASSRATGIPDRFSGSGSGTEFTLTISSLQSEDFAVYYCQQYYDRPPLTFGGGTKVEIK
notes: Whole antibody; Heavy chain mut = D1E, R13Q, E16R, M34V, E43K, L111Q
On to B8, for which the Kd stood at 1.7 nM with SIRP-α human v2, 23 nM in the assay with SIRP-α mouse BL6, 3.5 nM with Human SIRPβ and 17 nM with Human SIRPγ.

B9: Anti-SIRP-α antibody 136, light chain Mut_I2T, heavy chain Mut (antibody, V domains shown)
VH: B8 VH
VL: B8 VL with T12S, T22S, E38Q
notes: Whole antibody
As for B9, the Kd in the assay with SIRP-α human v2 is 1.8 nM; in the assay with SIRP-α mouse BL6 it was 15 nM; with Human SIRPβ it was 3.2 nM; with Human SIRPγ, 40 nM.

B10: Anti-SIRP-α antibody 136, light chain Mut, heavy chain Mut (antibody, V domains shown)
VH: B8 VH
VL: B8 VL with T2I, T12S, T22S, E38Q
notes: Whole antibody
Take B10: the Kd in the assay with SIRP-α human v2 amounted to 20 nM; with SIRP-α mouse BL6, 32 nM; with Human SIRPγ it was 1.7 nM.

B11: Anti-SIRP-α antibody 136, light chain Mut_Q38E, heavy chain Mut (antibody, V domains shown)
VH: B8 VH
VL: B8 VL with T2I, T12S, T22S
notes: Whole antibody
For the molecule B11, the values for the dissociation constant Kd with SIRP-α human v2, in the assay with SIRP-α mouse BL6 and with Human SIRPγ were 13 nM, 33 nM and 19 nM, respectively.

B12: Anti-SIRP-α antibody 136, light chain Mut_I2T, heavy chain Mut_V34M (antibody, V domains shown)
VH: B8 VH with V34M
VL: B8 VL with T12S, T22S, E38Q
notes: Whole antibody
As to B12, the dissociation constant (Kd) came to 17 nM with SIRP-α human v2; 2.1 nM with SIRP-α cynomolgus; 14 nM with SIRP-α mouse BL6; 2.2 nM in the assay with Human SIRPβ; 34 nM in the assay with Human SIRPγ.

B13: Anti-SIRP-α antibody 136, light chain Mut_S22T, heavy chain Mut (antibody, V domains shown)
VH: B8 VH
VL: B8 VL with T2I, T12S, E38Q
notes: Whole antibody
Take B13: the figures for the dissociation constant Kd with SIRP-α human v2, in the assay with SIRP-α mouse BL6 and with Human SIRPγ were 8.3 nM, 13 nM and 62 nM, respectively.

B14: Anti-SIRP-α antibody 136, light chain Mut, heavy chain wt (antibody, V domains shown)
VH: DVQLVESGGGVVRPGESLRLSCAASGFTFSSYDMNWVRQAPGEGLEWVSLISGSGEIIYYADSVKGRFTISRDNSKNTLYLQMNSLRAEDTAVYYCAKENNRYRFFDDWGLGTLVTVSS
VL: B8 VL with T2I, T12S, T22S, E38Q
notes: Whole antibody; Light chain mut = T2I, T12S, T22S, E38Q
Turning to B14, the Kd stood at 17 nM with SIRP-α human v2, 33 nM in the assay with SIRP-α mouse BL6 and 20 nM with Human SIRPγ.

B15: Anti-SIRP-α antibody 136, light chain Mut_S12T, heavy chain Mut (antibody, V domains shown)
VH: B8 VH
VL: B8 VL with T2I, T22S, E38Q
notes: Whole antibody
Take B15: the Kd worked out at 11 nM with SIRP-α human v2, 16 nM in the assay with SIRP-α mouse BL6 and 67 nM with Human SIRPγ.

B16: Anti-SIRP-α antibody 136, light chain wt, heavy chain wt (antibody, V domains shown)
VH: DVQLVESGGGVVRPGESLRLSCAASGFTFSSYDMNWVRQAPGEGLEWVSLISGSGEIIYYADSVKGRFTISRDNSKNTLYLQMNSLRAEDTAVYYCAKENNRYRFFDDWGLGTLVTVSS
VL: B8 VL
notes: Whole antibody
Take B16: the equilibrium dissociation constant (Kd) with SIRP-α human v2 was found to be 1.6 nM; in the assay with SIRP-α mouse BL6 it was 13 nM; with Human SIRPβ, 4.4 nM; with Human SIRPγ, 24 nM.

B17: Hum9/AB21_HC_Mutall (antibody, V domains shown)
VH: EVQLVESGGGVVQPGGSLRLSCAASGFTFSSNAMSWVRQAPGKGLEWVAGISAGGSDTYYPASVKGRFTISRDNSKNTLYLQMNSLRAEDTAVYYCARETWNHLFDYWGQGTLVTVSS
VL: SYELTQPPSVSVSPGQTARITCSGGAYSSYYYAWYQQKPGQAPVLVIYSDDKRPSGIPERFSGSSSGTTVTLTISGVQAEDEADYYCGGYDQSSYTNPFGGGTKLTVL
notes: Whole antibody
As for B17, the Kd with SIRP-α human v2 is 0.12 nM; with SIRP-α cynomolgus, 0.22 nM; with Human SIRPβ, 0.057 nM; in the assay with Human SIRPγ, 0.035 nM.

These data come from US20220096649A1 (TALLAC THERAPEUTICS, published 2022).
